Substitutions are numbered along the chain they refer to.
T1: MICA*008 on MEL-JUSO cells (human, UniProt Q29983 24-317)
T1 chain: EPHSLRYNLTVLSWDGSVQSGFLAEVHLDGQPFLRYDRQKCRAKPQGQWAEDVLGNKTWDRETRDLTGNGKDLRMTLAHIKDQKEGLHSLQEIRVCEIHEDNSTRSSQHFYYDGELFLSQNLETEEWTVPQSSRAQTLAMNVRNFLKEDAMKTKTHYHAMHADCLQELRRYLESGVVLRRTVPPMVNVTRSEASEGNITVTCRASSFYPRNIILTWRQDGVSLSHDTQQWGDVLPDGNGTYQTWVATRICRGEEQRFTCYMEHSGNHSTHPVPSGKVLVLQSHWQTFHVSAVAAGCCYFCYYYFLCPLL

T2: huMICA*004 alpha 3-his (human)
T2 construct: whole construct entry: GS, alpha 3 domain, GNS, His8; also called MICA004.His; MICA*004 alpha3 construct
T2 chain: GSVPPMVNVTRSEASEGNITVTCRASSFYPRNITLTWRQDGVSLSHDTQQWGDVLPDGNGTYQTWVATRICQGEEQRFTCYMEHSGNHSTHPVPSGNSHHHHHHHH

T3: huMICB*005 alpha 3-his (human)
T3 construct: whole construct entry: GS, alpha 3 domain, GNS, His8; also called MICB005.His; MICB*005 alpha3 construct
T3 chain: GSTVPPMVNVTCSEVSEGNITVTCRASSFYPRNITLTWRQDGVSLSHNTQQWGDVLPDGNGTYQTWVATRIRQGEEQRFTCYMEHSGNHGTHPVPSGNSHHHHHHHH

T4: huMICA*002 alpha 3-his (human)
T4 construct: whole construct entry: GS, alpha 3 domain, GNS, His8; also called MICA002.His; MICA*002 alpha3 construct
T4 chain: T3 chain with C12R, V15A, S28G, R32W, T37S, N48D, R72C, G90S

T5: huMICA*008 alpha 3-his (human)
T5 construct: whole construct entry: GS, alpha 3 domain (Thr204-Ser297), GNS, His8; also the construct of the FPOP experiment; also called MICA008.His; MICA*008 alpha3 construct
T5 chain: T3 chain with C12R, V15A, T35I, N48D, R72C, Q73R, G90S

B1: 1D5v22 (antibody, IgG1, V domains shown)
VH: EIQLVQSGAEVKKPGASVKVSCKASGYAFTSQNIYWVRQAPGQGLEWIGYIEPYNVVPMYNPKFKGRATLTRDKSTSTAYLELSSLRSEDTAVYYCARSGSSNFDYWGQGTLVTVSS
VL: DIQLTQSPSSLSASVGDRVTITCSASSSISSHYLHWYQQKPGKSPKLLIYRTSNLASGVPSRFSGSGSGTDYTLTISSLQPEDFATYYCQQGSSLPLTFGQGTKVEIK
notes: humanized variant of 1D5
B2: 1D5v25 (antibody, IgG1, V domains shown)
VH: B1 VH with I2V, A68V, L70I, R72V, K74T
VL: B1 VL
notes: humanized variant of 1D5
B3: 1D5v28 (antibody, IgG1, V domains shown)
VH: B1 VH with M59L, R72V
VL: B1 VL
notes: humanized variant of 1D5
B4: 1D5v26 (antibody, IgG1, V domains shown)
VH: B1 VH with I2V, A68V, L70I
VL: B1 VL
notes: humanized variant of 1D5
B5: 1D5v23 (antibody, IgG1, V domains shown)
VH: B1 VH with R72V, K74T
VL: B1 VL
notes: humanized variant of 1D5
B6: 1D5v27 (antibody, IgG1, V domains shown)
VH: B1 VH with M59A, R72V
VL: B1 VL
notes: humanized variant of 1D5
B7: 1D5v24 (antibody, IgG1, V domains shown)
VH: B1 VH with I2V, A68V, L70I, R72V
VL: B1 VL
notes: humanized variant of 1D5
B8: 1D5v29 (antibody, IgG1, V domains shown)
VH: B1 VH with M59V, R72V
VL: B1 VL
notes: humanized variant of 1D5
B9: 15F11v2 (antibody, IgG1, V domains shown)
VH: EIQLVQSGAEVKKPGASVKVSCKPSGYAFTSNNIYWVRQAPGQGLEWIGYIDPYIGRIIYNQQFKDRATLTVDKSTSTAYLELSSLRSEDTAVYYCSRSGERSNFDYWGQGTLVTVSS
VL: EIVLTQSPATLSLSPGERATLSCSASSSISSNYLHWYQQKPGQAPRLLIYRTSNLASGIPARFSGSGSGTDFTLTISSLEPEDFAVYYCQQGGSLPLTFGQGTKVEIK
notes: humanized variant of 15F11
B10: 15F11v4 (antibody, IgG1, V domains shown)
VH: B9 VH
VL: B9 VL with A44S, I59V, F72Y
notes: humanized variant of 15F11
B11: 15F11v3 (antibody, IgG1, V domains shown)
VH: B9 VH with I2V, P24A, A68V, L70I, V72A, K74T
VL: B9 VL with A44S, I59V, F72Y
notes: humanized variant of 15F11
B12: 15F11v5 (antibody, IgG1, V domains shown)
VH: B9 VH with A16S, L81M
VL: B9 VL
notes: humanized variant of 15F11
B13: 15F11v6 (antibody, IgG1, V domains shown)
VH: B9 VH with A16S, L81M
VL: B9 VL with A44S, I59V, F72Y
notes: humanized variant of 15F11
B14: 15F11v1 (antibody, IgG1, V domains shown)
VH: B9 VH with I2V, P24A, A68V, L70I, V72A, K74T
VL: B9 VL
notes: humanized variant of 15F11
B15: 13A9v2 (antibody, IgG1, V domains shown)
VH: EVQLVQSGAEVKKPGASVKVSCKASGYAFTNYLIEWVRQAPGQGLEWIGAINPGSGATNYNEKFKDRATLTADKSTNTAYLELSSLRSEDTAVYFCARFLGNYFDNWGQGTLVTVSS
VL: DIQMTQSPSSLSASVGDRVTITCRASGNIHSYLAWYQQKPGKAPKLLIYYAETLADGVPSRFSGSGSGTDFTLTISSLQPEDFATYYCQQFWTTPYTFGQGTKVEIK
notes: humanized variant of 13A9
B16: 13A9v1 (antibody, IgG1, V domains shown)
VH: B15 VH with A68V, L70I, K74T, N77S, F95Y
VL: B15 VL
notes: humanized variant of 13A9
B17: 13A9v4 (antibody, IgG1, V domains shown)
VH: B15 VH
VL: B15 VL with A43S, I48V, F71Y, Y87F
notes: humanized variant of 13A9
B18: 13A9v3 (antibody, IgG1, V domains shown)
VH: B15 VH with A68V, L70I, K74T, N77S, F95Y
VL: B15 VL with A43S, I48V, F71Y, Y87F
notes: humanized variant of 13A9
B19: 13A9v6 (antibody, IgG1, V domains shown)
VH: B15 VH with A16S, L81M
VL: B15 VL with A43S, I48V, F71Y, Y87F
notes: humanized variant of 13A9
B20: 13A9v5 (antibody, IgG1, V domains shown)
VH: B15 VH with A16S, L81M
VL: B15 VL
notes: humanized variant of 13A9

What follows are binders tested against MICA*004 on HCC1534 cells (human, UniProt Q29983 24-383) (assay: cell-based or functional assay).
Wherever % Inhibition is given: test concentration or dose not given here.

Row | % Inhibition | Binder
1 | 46% | B1
2 | 46% | B2
3 | 3% | B3
4 | 37% | B4
5 | 50% | B5
6 | 53% | B6
7 | 50% | B7
8 | 40% | B8
9 | 43% | B9
10 | -34% | B10
11 | 39% | B11
12 | 46% | B12
13 | -14% | B13
14 | 3% | B14
15 | 10% | B15
16 | 12% | B16
17 | -29% | B17
18 | 25% | B18
19 | 16% | B19
20 | 9% | B20

Each binder was assayed against MICB*005 on HCC1534 cells (human) (assay: cell-based or functional assay).

Row | % Inhibition | Binder
21 | 34% | B1
22 | 28% | B2
23 | 36% | B3
24 | 42% | B4
25 | 38% | B5
26 | -8% | B6
27 | 43% | B7
28 | -8% | B8
29 | 35% | B9
30 | 44% | B10
31 | -49% | B11
32 | -35% | B12
33 | 59% | B13
34 | 43% | B14
35 | 60% | B15
36 | 43% | B16
37 | 63% | B17
38 | 42% | B18
39 | 6% | B19
40 | 63% | B20

Molecular target: T1, MICA*008 on MEL-JUSO cells
Experiment: cell-based or functional assay

Row | % Inhibition | Binder
41 | 57% | B1
42 | 62% | B2
43 | 0% | B3
44 | 50% | B4
45 | 63% | B5
46 | 69% | B6
47 | 65% | B7
48 | 57% | B8
49 | 62% | B9
50 | -19% | B10
51 | 50% | B11
52 | 62% | B12
53 | -8% | B13
54 | 4% | B14
55 | 12% | B15
56 | 10% | B16
57 | -31% | B17
58 | 2% | B18
59 | 8% | B19
60 | 4% | B20

Molecular target: T2, huMICA*004 alpha 3-his
Experiment: SPR, Biacore 8K, antibody on Protein A chip
Method: (§1) A Protein A sensorchip (GE Healthcare) was used following manufacturer provided protocols to capture humanized anti-MICA/B antibodies. The MICA/B alleles were passed over. Antibody binding was measured to human MICA 002, 004, 008 and MICB 005 alpha 3 domains (His tagged, in-house). Sensograms for binding of MICA/B were recorded using an injection time of 2 minutes with a flow rate of 30 ml/min, at a temperature of 25° C., and with a running buffer of 10 mM HEPES, pH 7.4, 150 mM NaCl, 3mM EDTA, and 0.005% Tween 20. After injection, disassociation of the alpha 3 domain from the antibody was monitored for 10 minutes in running buffer. The surface was regenerated between binding cycles with a 60 ul injection of 10 mM Glycine HCl pH 1.5. […] The data was analyzed using a 1:1 binding model. Sensograms of MICA alleles binding to captured anti-MICA antibody were used to calculate the dissociation constant (Kd).

Row | Kd | Binder
61 | 5.45 nM | B1
62 | 0.96 nM | B2
63 | 0.87 nM | B3
64 | 3.17 nM | B4
65 | 0.9 nM | B5
66 | 1.52 nM | B6
67 | 0.9 nM | B7
68 | 1.58 nM | B8
69 | 2.74 nM | B9
70 | 2.58 nM | B10
71 | 5.7 nM | B11
72 | 3.11 nM | B12
73 | 2.91 nM | B13
74 | 5.96 nM | B14
75 | 5.32 nM | B15
76 | 8.37 nM | B16
77 | 3.69 nM | B17
78 | 4.79 nM | B18
79 | 3.77 nM | B19
80 | 5.52 nM | B20

Molecular target: T3, huMICB*005 alpha 3-his
Experiment: SPR, Biacore 8K, antibody on Protein A chip
Method: as §1

Row | Kd | Binder
81 | 13.2 nM | B1
82 | 1.84 nM | B2
83 | 1.49 nM | B3
84 | 7.15 nM | B4
85 | 1.65 nM | B5
86 | 3.31 nM | B6
87 | 1.62 nM | B7
88 | 3.86 nM | B8
89 | 6.71 nM | B9
90 | 5.72 nM | B10
91 | 14.1 nM | B11
92 | 7.8 nM | B12
93 | 6.62 nM | B13
94 | 16.1 nM | B14
95 | 3.15 nM | B15
96 | 5.12 nM | B16
97 | 2.4 nM | B17
98 | 3.15 nM | B18
99 | 2.45 nM | B19
100 | 3.17 nM | B20

Molecular target: T4, huMICA*002 alpha 3-his
Experiment: SPR, Biacore 8K, antibody on Protein A chip
Method: as §1

Row | Kd | Binder
101 | 6.46 nM | B1
102 | 1.22 nM | B2
103 | 1.19 nM | B3
104 | 3.9 nM | B4
105 | 1.11 nM | B5
106 | 1.85 nM | B6
107 | 1.21 nM | B7
108 | 2.01 nM | B8
109 | 5.05 nM | B9
110 | 4.75 nM | B10
111 | 12.7 nM | B11
112 | 6.05 nM | B12
113 | 5.47 nM | B13
114 | 12.8 nM | B14
115 | 4.44 nM | B15
116 | 5.87 nM | B16
117 | 3.93 nM | B17
118 | 4.97 nM | B18
119 | 3.94 nM | B19
120 | 4.27 nM | B20

Molecular target: T5, huMICA*008 alpha 3-his
Experiment: SPR, Biacore 8K, antibody on Protein A chip
Method: as §1

Row | Kd | Binder
121 | 4.98 nM | B1
122 | 0.93 nM | B2
123 | 0.84 nM | B3
124 | 3.12 nM | B4
125 | 0.58 nM | B5
126 | 1.44 nM | B6
127 | 1.41 nM | B7
128 | 1.65 nM | B8
129 | 3.17 nM | B9
130 | 2.58 nM | B10
131 | 5.56 nM | B11
132 | 3.2 nM | B12
133 | 2.94 nM | B13
134 | 6.52 nM | B14
135 | 2.56 nM | B15
136 | 5.6 nM | B16
137 | 2.72 nM | B17
138 | 3.85 nM | B18
139 | 2.8 nM | B19
140 | 3.68 nM | B20

Source: patent US20200055939A1 (Genentech, published 2020)
